Square brackets hold non-standard residues; d marks the D form. Ends that are not written are not given here. * marks the point of attachment. Cholesteryloxycarbonyl = CC(C)CCC[C@@H](C)[C@H]1CC[C@H]2[C@@H]3CC=C4C[C@@H](OC(=O)*)CC[C@]4(C)[C@H]3CC[C@]12C; Lithocholoyl = C[C@H](CCC(=O)*)[C@H]1CC[C@H]2[C@@H]3CC[C@@H]4C[C@H](O)CC[C@]4(C)[C@H]3CC[C@]12C; FITC = O=C1OC2(c3ccc(O)cc3Oc3cc(O)ccc32)c2ccc(NC(=S)*)cc21; Biotin = O=C1N[C@H]2[C@H](CS[C@H]2CCCCC(=O)*)N1; Myristoyl = CCCCCCCCCCCCCC(=O)*; hLeu = CC(C)CC[C@H](N)C(=O)O; VitB6 = vitamin B6 moiety; Nva = CCC[C@H](N)C(=O)O; Dap = NC[C@H](N)C(=O)O
B1: MPS ab60025-49 (peptide)
peptide: RPR[Nva]Y[Dap][hLeu][dK][dK][dK][dK][dK][dK][dK][dK][dK][dK]-NH2
modifications: N-terminus assumed
SMILES: CCC[C@H](NC(=O)[C@H](CCCNC(=N)N)NC(=O)[C@@H]1CCCN1C(=O)[C@@H](N)CCCNC(=N)N)C(=O)N[C@@H](Cc1ccc(O)cc1)C(=O)N[C@@H](CN)C(=O)N[C@@H](CCC(C)C)C(=O)N[C@H](CCCCN)C(=O)N[C@H](CCCCN)C(=O)N[C@H](CCCCN)C(=O)N[C@H](CCCCN)C(=O)N[C@H](CCCCN)C(=O)N[C@H](CCCCN)C(=O)N[C@H](CCCCN)C(=O)N[C@H](CCCCN)C(=O)N[C@H](CCCCN)C(=O)N[C@H](CCCCN)C(N)=O
B2: MPS ab60025-50 (peptide)
peptide: [dK][dK][dK][dK][dK][dK][dK][dK][dK][dK]RPR[Nva]Y[Dap][hLeu]-NH2
modifications: N-terminus assumed
SMILES: CCC[C@H](NC(=O)[C@H](CCCNC(=N)N)NC(=O)[C@@H]1CCCN1C(=O)[C@H](CCCNC(=N)N)NC(=O)[C@@H](CCCCN)NC(=O)[C@@H](CCCCN)NC(=O)[C@@H](CCCCN)NC(=O)[C@@H](CCCCN)NC(=O)[C@@H](CCCCN)NC(=O)[C@@H](CCCCN)NC(=O)[C@@H](CCCCN)NC(=O)[C@@H](CCCCN)NC(=O)[C@@H](CCCCN)NC(=O)[C@H](N)CCCCN)C(=O)N[C@@H](Cc1ccc(O)cc1)C(=O)N[C@@H](CN)C(=O)N[C@@H](CCC(C)C)C(N)=O
B3: MPS ab60025-82 (peptide)
peptide: [dK][dK][dK][dK][dK][dK][dK][dK]RPR[Nva]Y[Dap][hLeu]-NH2
modifications: N-terminus assumed
SMILES: CCC[C@H](NC(=O)[C@H](CCCNC(=N)N)NC(=O)[C@@H]1CCCN1C(=O)[C@H](CCCNC(=N)N)NC(=O)[C@@H](CCCCN)NC(=O)[C@@H](CCCCN)NC(=O)[C@@H](CCCCN)NC(=O)[C@@H](CCCCN)NC(=O)[C@@H](CCCCN)NC(=O)[C@@H](CCCCN)NC(=O)[C@@H](CCCCN)NC(=O)[C@H](N)CCCCN)C(=O)N[C@@H](Cc1ccc(O)cc1)C(=O)N[C@@H](CN)C(=O)N[C@@H](CCC(C)C)C(N)=O
B4: MPS ab60025-94 (peptide)
peptide: [dR][dR][dR][dR][dR][dR][dR]RPR[Nva]Y[Dap][hLeu]-NH2
modifications: N-terminus assumed
SMILES: CCC[C@H](NC(=O)[C@H](CCCNC(=N)N)NC(=O)[C@@H]1CCCN1C(=O)[C@H](CCCNC(=N)N)NC(=O)[C@@H](CCCNC(=N)N)NC(=O)[C@@H](CCCNC(=N)N)NC(=O)[C@@H](CCCNC(=N)N)NC(=O)[C@@H](CCCNC(=N)N)NC(=O)[C@@H](CCCNC(=N)N)NC(=O)[C@@H](CCCNC(=N)N)NC(=O)[C@H](N)CCCNC(=N)N)C(=O)N[C@@H](Cc1ccc(O)cc1)C(=O)N[C@@H](CN)C(=O)N[C@@H](CCC(C)C)C(N)=O
B5: PTR 6164 (peptide)
peptide: Cholesteryloxycarbonyl-RPR[Nva]Y[Dap][hLeu]-NH2
SMILES: CCC[C@H](NC(=O)[C@H](CCCNC(=N)N)NC(=O)[C@@H]1CCCN1C(=O)[C@H](CCCNC(=N)N)NC(=O)O[C@H]1CC[C@@]2(C)C(=CC[C@H]3[C@@H]4CC[C@H]([C@H](C)CCCC(C)C)[C@@]4(C)CC[C@@H]32)C1)C(=O)N[C@@H](Cc1ccc(O)cc1)C(=O)N[C@@H](CN)C(=O)N[C@@H](CCC(C)C)C(N)=O
B6: PTR 6180 (peptide)
peptide: Myristoyl-GRPR[Nva]Y[Dap][hLeu]-NH2
SMILES: CCCCCCCCCCCCCC(=O)NCC(=O)N[C@@H](CCCNC(=N)N)C(=O)N1CCC[C@H]1C(=O)N[C@@H](CCCNC(=N)N)C(=O)N[C@@H](CCC)C(=O)N[C@@H](Cc1ccc(O)cc1)C(=O)N[C@@H](CN)C(=O)N[C@@H](CCC(C)C)C(N)=O
B7: PTR 6194 (peptide)
peptide: Lithocholoyl-RPR[Nva]YA[hLeu]-NH2
SMILES: CCC[C@H](NC(=O)[C@H](CCCNC(=N)N)NC(=O)[C@@H]1CCCN1C(=O)[C@H](CCCNC(=N)N)NC(=O)CC[C@@H](C)[C@H]1CC[C@H]2[C@@H]3CC[C@@H]4C[C@H](O)CC[C@]4(C)[C@H]3CC[C@]12C)C(=O)N[C@@H](Cc1ccc(O)cc1)C(=O)N[C@@H](C)C(=O)N[C@@H](CCC(C)C)C(N)=O
B8: PTR 6402 (peptide)
peptide: Cholesteryloxycarbonyl-[dK][dK][dK]RPR[Nva]Y[Dap][hLeu]K(FITC)-NH2
SMILES: CCC[C@H](NC(=O)[C@H](CCCNC(=N)N)NC(=O)[C@@H]1CCCN1C(=O)[C@H](CCCNC(=N)N)NC(=O)[C@@H](CCCCN)NC(=O)[C@@H](CCCCN)NC(=O)[C@@H](CCCCN)NC(=O)O[C@H]1CC[C@@]2(C)C(=CC[C@H]3[C@@H]4CC[C@H]([C@H](C)CCCC(C)C)[C@@]4(C)CC[C@@H]32)C1)C(=O)N[C@@H](Cc1ccc(O)cc1)C(=O)N[C@@H](CN)C(=O)N[C@@H](CCC(C)C)C(=O)N[C@@H](CCCCNC(=S)Nc1ccc2c(c1)C(=O)OC21c2ccc(O)cc2Oc2cc(O)ccc21)C(N)=O
B9: PTR 6400 (peptide)
peptide: Cholesteryloxycarbonyl-[dK][dK][dK]KPR[Nva]Y[Dap][hLeu]-NH2
SMILES: CCC[C@H](NC(=O)[C@H](CCCNC(=N)N)NC(=O)[C@@H]1CCCN1C(=O)[C@H](CCCCN)NC(=O)[C@@H](CCCCN)NC(=O)[C@@H](CCCCN)NC(=O)[C@@H](CCCCN)NC(=O)O[C@H]1CC[C@@]2(C)C(=CC[C@H]3[C@@H]4CC[C@H]([C@H](C)CCCC(C)C)[C@@]4(C)CC[C@@H]32)C1)C(=O)N[C@@H](Cc1ccc(O)cc1)C(=O)N[C@@H](CN)C(=O)N[C@@H](CCC(C)C)C(N)=O

biological target: protein kinase B (PKB); assay: cell-based or functional assay

| Binder | % Inhibition of PKB activity at 1 µM | % Inhibition of PKB activity at 10 µM |
| --- | --- | --- |
| RQIKIWFQNRRMKWKKRPRXYXX (Nva, Dap, Hol of the 6154 part) [MPS ab60025-2] | 60% | 92% |
| B1 | 97% | 99% |
| B2 | 93% | 98% |
| B3 | 78% | 92% |
| B4 | 76% | 92% |
| RQIKIWFQNRRMKWKKRPRXYAX (Nva, Hol of the 6184 part) [MPS ab60025-4] | 80% | 96% |

biological target: protein kinase B (PKB); assay: cell-based or functional assay; remark: another data set of the same source

| Binder | IC50, in vitro PKB inhibition |
| --- | --- |
| RQIKIWFQNRRMKWKKRPRXYXX (Nva, Dap, Hol of the 6154 part) [MPS ab60025-2] | 1000 nM |
| B1 | 40 nM |
| B2 | 80 nM |
| B3 | 400 nM |
| B4 | 400 nM |
| RQIKIWFQNRRMKWKKRPRXYAX (Nva, Hol of the 6184 part) [MPS ab60025-4] | 200 nM |

biological target: protein kinase B (PKB); assay: cell-based or functional assay; remark: another data set of the same source

| Binder | IC50, kinase assay PKB |
| --- | --- |
| B5 | 700 nM |
| B6 | 900 nM |

biological target: protein kinase A (PKA); assay: cell-based or functional assay

| Binder | IC50, kinase assay PKA |
| --- | --- |
| B5 | 10000 nM |
| B6 | 20000 nM |

biological target: protein kinase B (PKB); assay: cell-based or functional assay; remark: another data set of the same source

| Binder | IC50, kinase assay PKB |
| --- | --- |
| {Galactopyranosyl‑O‑CO}-RPR[Nva]Y[Dap][hLeu]-NH2 [PTR 6214] | 10000 nM |
| VitB6-RPR[Nva]Y[Dap][hLeu] [PTR 6232] | 1000 nM |
| Lithocholoyl-GRPR[Nva]YA[hLeu]-NH2 [PTR 6192] | 2500 nM |
| {Testosterone‑yl‑O‑CO}-RPR[Nva]Y[Dap][hLeu]-NH2 [PTR 6212] | 7000 nM |
| B7 | 2000 nM |
| {Testosterone‑yl‑O‑CO}-RPR[Nva]YA[hLeu]-NH2 [PTR 6226] | 3000 nM |
| Biotin-RPR[Nva]Y[Dap][hLeu]-NH2 [PTR 6158] | 1000 nM |
| {VitE‑Succinate}-RPR[Nva]YA[hLeu]-NH2 [PTR 6242] | 1000 nM |
| Lithocholoyl-RPR[Nva]Y[Dap][hLeu]-NH2 [PTR 6220] | 2000 nM |
| {H‑1‑adamantyl}-RPR[Nva]YA[hLeu]-NH2 [PTR 6200] | 300 nM |
| Lauryl-RPR[Nva]Y[Dap][hLeu]-NH2 [PTR 6160] | 8000 nM |
| {Galactopyranosyl‑O‑CO}-RPR[Nva]YA[hLeu]-NH2 [PTR 6224] | 5000 nM |
| Lithocholoyl-GRPR[Nva]Y[Dap][hLeu]-NH2 [PTR 6218] | 800 nM |
| RPR[Nva]YA[hLeu]-NH2 (not fully specified (N-terminus)) [PTR 6202] | 300 nM |
| {S‑carbofluorescin}-RPR[Nva]Y[Dap][hLeu]-NH2 [PTR 6182] | 3000 nM |
| VitB6-RPR[Nva]YA[hLeu]-NH2 [PTR 6228] | 2000 nM |

biological target: protein kinase A (PKA); assay: cell-based or functional assay; remark: another data set of the same source

| Binder | IC50, kinase assay PKA |
| --- | --- |
| Lithocholoyl-GRPR[Nva]YA[hLeu]-NH2 [PTR 6192] | > 10000 nM |
| B7 | > 10000 nM |
| Biotin-RPR[Nva]Y[Dap][hLeu]-NH2 [PTR 6158] | > 100000 nM |
| {H‑1‑adamantyl}-RPR[Nva]YA[hLeu]-NH2 [PTR 6200] | > 10000 nM |
| Lauryl-RPR[Nva]Y[Dap][hLeu]-NH2 [PTR 6160] | 50000 nM |
| {Galactopyranosyl‑O‑CO}-RPR[Nva]YA[hLeu]-NH2 [PTR 6224] | 8000 nM |
| RPR[Nva]YA[hLeu]-NH2 (not fully specified (N-terminus)) [PTR 6202] | > 10000 nM |
| {S‑carbofluorescin}-RPR[Nva]Y[Dap][hLeu]-NH2 [PTR 6182] | > 10000 nM |

biological target: protein kinase B (PKB); assay: cell-based or functional assay; remark: another data set of the same source

| Binder | IC50, in vitro kinase assay PKB |
| --- | --- |
| B8 | 500 nM |
| B9 | 300 nM |
